According to the supplement of paper PMC9170038:

Tested on: MS2 coat protein
Assay: apparent KD of MS2 coat protein; designed switch direction (-1 OFF switch, 1 ON switch): -1; higher = weaker reporter binding
Summary of the method: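 Designed RNA switches with common flanks were transcribed on Illumina chips by stalled E. coli RNA polymerase and titrated with SNAP-549-labelled MS2 coat protein, from 0.7 or 1.5 nM doubling to 3 µM, in Tris-HCl pH 7.5 buffer with KCl, MgCl2, BSA, DTT, tRNA and Tween-20. Steps lasted 0.8–1.5 h (lowest) to 10–20 min (highest). Titrations ran without input, with 200 uM small-molecule ligand, or with an oligonucleotide input. Normalised cluster fluorescence was curve-fitted, and apparent KD is the per-design median over clusters.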

[1] = input ligand: microRNA oligo, concentration not stated
[2] = Eterna round: R95, input ligand: microRNA oligo, concentration not stated
[3] = Eterna round: R95, input ligand: FMN 200 uM
[4] = Eterna round: R95, input ligand: none

Sequence | apparent KD of MS2 coat protein [1] [nM] | apparent KD of MS2 coat protein (input ligand: FMN 200 uM) [nM] | apparent KD of MS2 coat protein (input ligand: none) [nM] | apparent KD of MS2 coat protein [2] [nM] | apparent KD of MS2 coat protein [3] [nM] | apparent KD of MS2 coat protein [4] [nM]
AAAUGAUGAGGAUAUACAUGAGGAUCACCCAUGUGUAAAAAUAAAUACACAAAAGAAAGUAGAAGGCAUCAAAA [Ex 3 May 12] (Eterna round: R96, puzzle: Exclusion 3) | 25.1 | – | – | – | – | –
AAAUGGAACAGAGGAUAUAGGGACAUGAGGAUCACCCAUGUUUUUUUUGGUUGGGUGGGUUUGGGCUAGAAGGCUGGGAAGAAA [Kawasakiqro] (Eterna round: R96, puzzle: Exclusion NG 2) | 26.8 | 30.2 | 33 | – | – | –
AAAUUAGCAAGUAGAUCCGACAUGAGGAUCACCCAUGUAAUCUAAUAUUACGCUGCACGAAAGUGCGCUCGUCUUAG [Sensor-V1 #14] (Eterna round: R97, puzzle: Sensor, turn-off variant 1) | – | 416 | 470 | – | – | –
AAAUUAGCAAGUAGAUCCGACAUGAGGAUCACCCAUGUUAUCUGAAAGAACGCAGAAUAAUUGUGAGCUCGUCUAAA [Sensor-V1 #3] (Eterna round: R97, puzzle: Sensor, turn-off variant 1) | – | 162 | 181 | – | – | –
AAAUUAGCAAGUAGGUCCGACAUGAGGAUCACCCAUGUAAUCUAAUAUUACGCUGCAUGAGAGUGCGCUCGUCUUAG [Sensor-V1 #17] (Eterna round: R97, puzzle: Sensor, turn-off variant 1) | – | 241 | 337 | – | – | –
AACAAGGUAGGAUAUACAUGAGGAUCACCCAUGUCCCACCCGUUACCUAUGACCAUAUGUAGAAGGACCAAUAA [Exy#6] (Eterna round: R97, puzzle: Exclusion 3) | – | 16.7 | 17.8 | – | – | –
AACAAUAAGGAGGAUAUCGUAUCGGAAACGAUACGAGAAGGCUUAACAUGAGGAUCACCCAUGUUCCUCAAUAA [Fiskers Ex 6 - 23] (puzzle: Exclusion 6) | – | – | – | 33.1 | – | –
AACAGCACAGGAUAUACAUGAGGAUCACCCAUGUGAGAAUUAAGUGGCGUACCACAAAGUAGAAGGGUGCUGGA [Mat - Exclusion 3 - JL mod - D39] (Eterna round: R96, puzzle: Exclusion 3) | 36 | – | – | – | – | –
AACAGGUCAGGAUAUACAUGAGGAUCACCCAUGUAGACUUCUAGUCUAUCGUGACUGUGUAGAAGGGACCUGAA [Exclusion 3 (MOD of #98 Marzena11)] (Eterna round: R97, puzzle: Exclusion 3) | – | 146 | 40.1 | – | – | –
AACAGUGAUGAGGAUAUAUAAAGAGAAAAGAAAAUAGAAGGUGUCACAUGAGGAUCACCCAUGUGUUCUUCAGA [EX6 A.12] (Eterna round: R97, puzzle: Exclusion 6) | – | 17.4 | 16.5 | – | – | –
AACAUGUCAGGAUAUAUGACAUGGCUCUUCGGAGCAAGCUCAUAGAAGGGACAUGAGGAUCACCCAUGUAGAGC [Ex4-3: 21] (puzzle: Exclusion 4) | – | – | – | 21.7 | – | –
AACCAGCGAGGAUAUGCUUGCGCUUGUUCUGGUUAUAAUCGACUUGAGGAUCACCCAAGUAGAAGGUGCUGGCG [EX2 #56] (Eterna round: R97, puzzle: Exclusion 2) | – | 28.7 | 22.5 | – | – | –
AACCUAAGGCAUAGCUUUAGGUUUACAUGAGGAUCACCCAUGUAGGAUAUGGUAGGCAUAGCUUACCAGAAGGACAUGAAAAUU [Mat - Exclusion NG 3 - Mod of JL - D31] (Eterna round: R96, puzzle: Exclusion NG 3) | 46.8 | 240 | 46.1 | – | – | –
AACCUGAGGCAAAGCUUUAGGUGUACAUGAGGAUCACCCAUGUAGGAUAUGGUAGGCAAAGCUUACCAGAAGGACAUUUAGGUU [Mat - Exclusion NG 3 - Mod of JL - D44] (Eterna round: R96, puzzle: Exclusion NG 3) | 36.5 | 81.6 | 52.1 | – | – | –
AACCUGAGGCAAAGCUUUAGGUGUACAUGAGGAUCACCCAUGUAGGAUAUGGUAGGCUUUGCUUACCAGAAGGACAUUAUGAUG [Mat - Exclusion NG 3 - Mod of JL - D50] (Eterna round: R96, puzzle: Exclusion NG 3) | 41.9 | 68.6 | 51.7 | – | – | –
AACGACGGAGGAUAUACACCCUGGGACUCAUUAUCCCUUAGACAUGAGGAUCACCCAUGUAGAAGGCCGAACAC [EX2 B.3] (Eterna round: R97, puzzle: Exclusion 2) | – | 174 | 29.8 | – | – | –
AACGGUGGGUAGGAUAUCCGGUUCUAGUUGCCAGGAGAAGGGCCCACAUGAGGAUCACCCAUGUGGGUGGGCUC [Maesri] (Eterna round: R96, puzzle: Exclusion 6) | 43.1 | 44.6 | 81.3 | – | – | –
AACGGUGGGUAGGAUAUCCGGUUCUAGUUGCCAGGAGAAGGGCCCACAUGAGGAUCACCCAUGUGGGUGGGCUC [Maesri] (puzzle: Exclusion 6) | – | – | – | 43.6 | – | –
AACGUACGUCGAGGAUAUGACGAGAAAUAUGAGUCAGAAGGCGACUGGUACAUGAGGAUCACCCAUGUUGCGACCAUGUGGCUU [Eternabot solution 23] (Eterna round: R96, puzzle: Exclusion NG 1) | 13.4 | 53.7 | 17.9 | – | – | –
AACGUCUAGGUAGGAUAUCCACCAACAGGUGGAAGGAUAUGUUCGCAGAAGGUUCGCCAACAGGCGGAGAAGGACCUACGCGUA [pwkr exNG2 2xF7 2xFMN.31] (Eterna round: R96, puzzle: Exclusion NG 2) | 24.6 | 11.1 | 116 | – | – | –
AAGAAACAUGAGGAUCACCCAUGUGAGGAUAUGAAAAAGAAAAGAAAAGAAAGAAGGUUCAGAAGGCACAAAGG [salish99-ex1_r3_027] (Eterna round: R96, puzzle: Exclusion 1) | 25.4 | – | – | – | – | –
AAGAAACAUGAGGAUCACCCAUGUGAGGAUAUGAAAAAGAAAAGAAAAGAAAGAAGGUUCAGAAGGCACAAAGG [salish99-ex1_r3_027] (puzzle: Exclusion 1) | – | – | – | 45.8 | 48.6 | 28.5
AAGAAACAUGAGGAUCACCCAUGUGAGGAUAUGAAAAAGAAAAGAAAAGAAAGAAUAAUCAGAAGGCACAAAGG [Mat - Mod of Hog D11] (puzzle: Exclusion 1) | – | – | – | 34.3 | 50.7 | 40.1
